Test results from patent US20250277044A1 (published 2025).

B1: Urelumab (a patent sequence from WO2004010947) (antibody, V domains shown)
VH: QVQLQQWGAGLLKPSETLSLTCAVYGGSFSGYYWSWIRQSPEKGLEWIGEINHGGYVTYNPSLESRVTISVDTSKNQFSLKLSSVTAADTAVYYCARDYGPGNYDWYFDLWGRGTLVTVSS
VL: EIVLTQSPATLSLSPGERATLSCRASQSVSSYLAWYQQKPGQAPRLLIYDASNRATGIPARFSGSGSGTDFTLTISSLEPEDFAVYYCQQRSNWPPALTFGGGTKVEIK
B2: humanized anti-human 4-1BB monoclonal antibody BH3145b (antibody, V domains shown)
VH: QVQLVQSGAEVKKPGSSVKVSCKASGYTFTSYWINWVRQAPGQGLEWMGNIYPSDSYTNYNQKFKDRVTITADKSTSTAYMELSSLRSEDTAVYYCARLYYGSSPFDYWGQGTTVTVSS
VL: DIQMTQSPSSLSASVGDRVTITCRASQDISNYLNWYQQKPGKVPKLLIYHTSRLHSGVPSRFSGSGSGTDFTLTISSLQPEDVATYYCQQGHTLPRTFGGGTKVEIKR

Key:
[1] = target: T1, recombinant human 4-1BB (Sino Biological Inc., catalog number 10041-H08H) (human, UniProt Q07011 24-186); assay: ELISA; FIG. 2
[2] = target: T1, recombinant human 4-1BB (Sino …); assay: ELISA; FIG. 6
[3] = target: T1, recombinant human 4-1BB (Sino …); assay: competition ELISA; blocking of 4-1BB/4-1BBL
[4] = target: T1, recombinant human 4-1BB (Sino …); assay: ELISA; FIG. 6; remark: listed apart in the source

Binder	EC50 [1] [nM]	EC50 [2] [nM]	EC50 [3] [nM]	EC50 [4] [nM]
B1	0.087	0.087		
B2			14	0.086
